These results are taken from patent US20260209350A1.

First the molecules themselves.
T1: recombinant human TREM2-DAP12 fusion protein on cells (human) (UniProt Q9NZC2)
T1 sequence: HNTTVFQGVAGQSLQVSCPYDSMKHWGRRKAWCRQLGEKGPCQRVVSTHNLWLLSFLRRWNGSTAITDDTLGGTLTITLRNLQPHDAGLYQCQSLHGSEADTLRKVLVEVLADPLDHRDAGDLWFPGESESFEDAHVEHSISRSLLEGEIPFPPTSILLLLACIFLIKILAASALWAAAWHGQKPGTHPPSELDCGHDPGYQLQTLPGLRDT

B1: Ab15 (antibody, human IgG1, V domains shown)
VH: QVQLQESGPGLVKPSQTLSLTCTVSGGSISSGGYYWSWIRQHPGKGLEWIGNIYYSGSTVYNPSLKSRVTISVDTSKNQFSLKLSSVTAADTAVYYCARGLYGYGVLDVWGQGTMVTVSS
VL: DIQMTQSPSSLSASVGDRVTITCQASQDISNYLNWYQQKPGKAPKLLIYDASNLETGVPSRFSGSGSGTDFTFTISSLQPEDIATYYCQQFDTYPTFGGGTKVEIK
B2: Ab64 (antibody, human IgG1, V domains shown)
VH: EVQLVQSGAEVKKPGESLKISCKGSGYSFTSYWIGWVRQMPGKGLEWMGIIYPGDSDTRYSPSFQGQVTISADKSISTAYLQWSSLKASDTAMYYCARLGRWSSGSTAFDIWGQGTMVTVSS
VL: EIVMTQSPATLSVSPGERATLSCRASQSVSSNLAWYQQKPGQAPRLLIYGASTRATGIPARFSGSGSGTEFTLTISSLQSEDFAVYYCQQDDDGYTFGGGTKVEIK
B3: Ab12 (antibody, human IgG1, V domains shown)
VH: EVQLVQSGAEVKKPGESLKISCKGSGYSFTSYWIGWVRQMPGKGLEWMGIIYPGDSDTRYSPSFQGQVTISADKSISTAYLQWSSLKASDTAMYYCARLGHYSGTVSSYGMDVWGQGTTVTVSS
VL: DIQMTQSPSSLSASVGDRVTITCRASQSISSYLNWYQQKPGKAPKLLIYAASSLQSGVPSRFSGSGSGTDFTLTISSLQPEDFATYYCQQEYAVPYTFGGGTKVEIK
B4: Ab63 (antibody, human IgG1, V domains shown)
VH: QVQLVQSGAEVKKPGASVKVSCKASGYTFTSYGISWVRQAPGQGLEWMGWISTYNGNTNYAQKLQGRVTMTTDTSTSTAYMELRSLRSDDTAVYYCARGSGSGYDSWYDWGQGTLVTVSS
VL: DIQMTQSPSSVSASVGDRVTITCRASQGIDSWLAWYQQKPGKAPKLLIYAASSLQSGVPSRFSGSGSGTDFTLTISSLQPEDFATYYCQQAYSLPPTFGGGTKVEIK
B5: Ab82 (antibody, human IgG1, V domains shown)
VH: QVQLQESGPGLVKPSQTLSLTCTVSGGSISSGGYYWSWIRQHPGKGLEWIGYIYYSGSTVYNPSLKSRVTISVDTSKNQFSLKLSSVTAADTAVYYCARVSSSWYKAWGQGTMVTVSS
VL: DIQMTQSPSSVSASVGDRVTITCRASQGISSWLAWYQQKPGKAPKLLIYAASSLQSGVPSRFSGSGSGTDFTLTISSLQPEDFATYYCQQASTFPITFGGGTKVEIK
B6: Ab8 (antibody, human IgG1, V domains shown)
VH: QLQLQESGPGLVKPSETLSLTCTVSGGSISSSSYYWGWIRQPPGKGLEWIGSISYSGSTYYNPSLKSRVTISVDTSKNQFSLKLSSVTAADTAVYYCARGPYRLLLGMDVWGQGTTVTVSS
VL: DIQMTQSPSSLSASVGDRVTITCRASQSISSYLNWYQQKPGKAPKLLIYGASSLQSGVPSRFSGSGSGTDFTLTISSLQPEDFATYYCQQIDDTPITFGGGTKVEIK
B7: Ab83 (antibody, human IgG1, V domains shown)
VH: QVQLQQWGAGLLKPSETLSLTCAVYGGSFSGYYWSWIRQPPGKGLEWIGEIDHSGSTKYNPSLKSRVTISVDTSKNQFSLKLSSVTAADTAVYYCARVGVVVGRPGYSAFDIWGQGTMVTVSS
VL: DIQMTQSPSSVSASVGDRVTITCRASQGISSWLAWYQQKPGKAPKLLIYAASSLQSGVPSRFSGSGSGTDFTLTISSLQPEDFATYYCQQRNSLPLTFGGGTKVEIK
B8: Ab54 (antibody, human IgG1, V domains shown)
VH: QVQLVQSGAEVKKPGASVKVSCKASGYTFTSYYMHWVRQAPGQGLEWMGIINPSGGSTSYAQKFQGRVTMTRDTSTSTVYMELSSLRSEDTAVYYCARGPGYTTALDYYYMDVWGKGTTVTVSS
VL: DIQMTQSPSSLSASVGDRVTITCRASQSINSYLNWYQQKPGKAPKLLIYAASSLQSGVPSRFSGSGSGTDFTLTISSLQPEDFATYYCQQSDDDPFTFGGGTKVEIK
B9: Ab72 (antibody, human IgG1, V domains shown)
VH: QVQLQESGPGLVKPSETLSLTCTVSGGSISSYYWSWIRQPPGKGLEWIGSIYYSGSTNYNPSLKSRVTISVDTSKNQFSLKLSSVTAADTAVYYCARSGTETLFDYWGQGTLVTVSS
VL: DIQMTQSPSSLSASVGDRVTITCQASQDITNYLNWYQQKPGKAPKLLIYDASNLETGVPSRFSGSRSGTDFTFTISSLQPEDIATYYCQQDVNYPPTFGGGTKVEIK
B10: Ab52 (antibody, human IgG1, V domains shown)
VH: QVQLVQSGAEVKKPGASVKVSCKASGYTFTSYYIHWVRQAPGQGLEWMGIINPSGGSTSYAQKFQGRVTMTRDTSTSTVYMELSSLRSEDTAVYYCAREADDSSGYPLGLDVWGQGTMVTVSS
VL: EIVMTQSPATLSVSPGERATLSCRASQSVSSNLAWYQQKPGQAPRLLIYGASTRATGIPARFSGSGSGTEFTLTISSLQSEDFAVYYCQQVNSLPPTFGGGTKVEIK
B11: Ab73 (antibody, human IgG1, V domains shown)
VH: EVQLVQSGAEVKKPGESLKISCKGSGYSFTSYWIGWVRQMPGKGLEWMGIIYPGDSDTTYSPSFQGQVTISADKSISTAYLQWSSLKASDTAMYYCARAKMLDDGYAFDIWGQGTMVTVSS
VL: EIVMTQSPATLSVSPGERATLSCRASQSVSSNLAWYQQKPGQAPRLLIYGASTRATGIPARFSGSGSGTEFTLTISSLQSEDFAVYYCQQDDNYPYTFGGGTKVEIK
B12: Ab51 (antibody, human IgG1, V domains shown)
VH: QVQLVQSGAEVKKPGASVKVSCKASGYTFTSYYMHWVRQAPGQGLEWMGIINPSGGSTSYAQKFQGRVTMTRDTSTSTVYMELSSLRSEDTAVYYCARGVGGQDYYYMDVWGKGTTVTVSS
VL: DIQMTQSPSSLSASVGDRVTITCRASQSISSYLNWYQQKPGKAPKLLIYAASSLQSGVPSRFSGSGSGTDFTLTISSLQPEDFATYYCQQFDDVFTFGGGTKVEIK
B13: Ab45 (antibody, human IgG1, V domains shown)
VH: QVQLVQSGAEVKKPGASVKVSCKASGYTFTSYYMHWVRQAPGQGLEWMGIINPSGGSTSYAQKFQGRVTMTRDTSTSTVYMELSSLRSEDTAVYYCARGPGYTTALDYYYMDVWGKGTTVTVSS
VL: EIVMTQSPATLSVSPGERATLSCRASQSVSSNLAWYQQKPGQAPRLLIYGASTRATGIPARFSGSGSGTEFTLTISSLQSEDFAVYYCQQLDDWFTFGGGTKVEIK

The target of the first test is T1, recombinant human TREM2-DAP12 fusion protein on cells (human). In words: FACS, hTrem2 cells. A general note: In flow cytometry, cells or beads pass a laser one at a time.
Regarding B1, the MFI is 1610 MFI.

For the molecule B2, the MFI was determined as 1460 MFI.

With B3, the MFI turned out to be 1930 MFI.

As for B4, the MFI came to 1350 MFI.

On to B5, for which the MFI amounted to 371 MFI.

On to B6, for which the MFI stood at 1620 MFI.

As to B7, the MFI was 684 MFI.

For the molecule B8, the MFI worked out at 1930 MFI.

For B9, the MFI was determined as 1500 MFI.

As for B10, the MFI was found to be 1410 MFI.

Take B11: the MFI turned out to be 1310 MFI.

As for B12, the MFI amounted to 1930 MFI.

For another test the target is unchanged. In words: FACS, 293 cells.
As for B13, the MFI came to 2060 MFI.

Take B10: the MFI was determined as 1410 MFI.
